This experiment has as its target T1, ADGal4/rDr1 fusion protein (Gal4 activation domain fused to rice Dr1, encoded by pADGal4::rDr1) (rice).
T1 construct: Expressed in yeast YRG-2 for the two-hybrid assay; Coding region of rice Dr1 (EcoR I/Sma I fragment) fused in frame
T1 chain: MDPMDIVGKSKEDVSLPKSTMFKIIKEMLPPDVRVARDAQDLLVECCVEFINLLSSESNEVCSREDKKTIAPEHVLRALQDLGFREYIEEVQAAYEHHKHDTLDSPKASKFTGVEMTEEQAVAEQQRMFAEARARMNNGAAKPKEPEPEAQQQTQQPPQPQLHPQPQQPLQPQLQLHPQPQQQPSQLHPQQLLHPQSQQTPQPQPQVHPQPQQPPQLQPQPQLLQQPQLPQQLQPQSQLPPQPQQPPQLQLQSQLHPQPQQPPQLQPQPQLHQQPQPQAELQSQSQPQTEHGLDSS
Kind of experiment: yeast two-hybrid (Gal4 system, YRG-2), growth on medium lacking Trp, Leu and His. An excerpt: USA 88: 9578-9582). The rice Dr1 and DRAP1 cDNAs described in Example 5 were fused with pAD-Gal4 and pBD-Gal4 to generate pADGal4::rDr1 and pBDGal4::rDRAP1 constructs respectively. The EcoR I and Sma I fragment containing coding region of rice Dr1 was cloned into pAD-Gal4 EcoR I and Sma I sites to generate pADGal4::rDr1. The Mfe I and Pst I fragment containing coding region of rice DRAP1 was cloned into pBD-Gal4 EcoR I and Pst I sites to generate pBDGal4::rDRAP1. The pADGal4::rDr1 and pBDGal4::rDRAP1 were transformed independently and co-transformed into Stratagene's YRG-2 yeast strain (Stratagene, San Diego, Calif.). Competent YRG-2 cells were prepared according to the method of Eible (1992) Biotechniques 13:18-20) and transformed with one microgram of DNA added to a […] aliquot of competent yeast cells. A mixture containing 240 PI 50% PEG (MW 3350), 36 μl 1 M lithium acetate, and 50 μg of salmon sperm DNA was added to the yeast-DNA mixture. After mixing the mixture was incubated at 30° C. for 30 minutes and heat shocked at 42° C. for 20 minutes. Maximum of 200 μl of transformation mixture was plated on selective plates. For initial plating transformants containing the pADGal4::rDr1 construct (trp+), were plated on selection medium lacking tryptophan. […]

B1: Truncated rice DRAP1 (N-terminal deletion of 63 amino acids) fused to Gal4 DNA binding domain, encoded by pBDGal4::rDRAP1NN64 (other, not shown: large carriers)
chain: SFHLKQCVRRYSSFDFLTEVVNKVPDLGGADSCGDDRALPRRRKALPNGSDPENEESRSSKMAVRSANISPRGRGRGRGRGRGRPPTKRKEVGYVQFEDESSMFADQGEALPGEETVPETIHGTESVPPSTHPPAEAPSAAEIPAPNPKVEEAKNDDHQPDWPMPDAIGNIGVGPSGFGHLTVQVDEDEDYDNED
notes: Lacks the N-terminal 63 amino acids of rice DRAP1
Regarding B1, the binding result is recorded as “no binding”.
